The target of experiment [1] is T1, dopamine D2 receptor (Homo sapiens, UniProt P14416). The note with it: COS-7, receptor + Gα16, 10 μM dopamine, cited from earlier work.
Experiment [2] deals with T1, dopamine D2 receptor. To be noted: 10 μM dopamine; for IP Formation % Res.: relative to basal.
The next experiment concerns the target T2, melatonin Mel1b receptor.
T2 sequence (P49286 whole entry, species assumed, looked up): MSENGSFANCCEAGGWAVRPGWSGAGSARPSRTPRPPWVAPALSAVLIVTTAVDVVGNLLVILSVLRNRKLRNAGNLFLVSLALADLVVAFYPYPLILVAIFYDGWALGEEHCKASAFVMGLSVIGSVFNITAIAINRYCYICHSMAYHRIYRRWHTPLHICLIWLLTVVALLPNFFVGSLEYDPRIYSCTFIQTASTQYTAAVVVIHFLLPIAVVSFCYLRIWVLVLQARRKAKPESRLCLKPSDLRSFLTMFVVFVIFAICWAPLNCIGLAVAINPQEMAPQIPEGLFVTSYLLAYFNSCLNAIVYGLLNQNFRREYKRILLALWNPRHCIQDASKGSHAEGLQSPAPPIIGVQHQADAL

Experiment [3] deals with melatonin Mel1c receptor.
For experiment [4], the target named is formyl peptide (fMLP) receptor.
For experiment [5], the target named is dopamine D2 receptor.
In experiment [6] the target is melatonin Mel1c receptor. This is another data set of the same source.
Experiment [7] has as its target opioid receptor-like (ORL1) receptor.
Setting [8] is: COS-7, receptor + 16z25 chimera.
Setting [9] is: COS-7, receptor + 16z44 chimera.

Read-outs that look alike come from different tables or passages of the source.

T1 sequence (P14416 whole entry): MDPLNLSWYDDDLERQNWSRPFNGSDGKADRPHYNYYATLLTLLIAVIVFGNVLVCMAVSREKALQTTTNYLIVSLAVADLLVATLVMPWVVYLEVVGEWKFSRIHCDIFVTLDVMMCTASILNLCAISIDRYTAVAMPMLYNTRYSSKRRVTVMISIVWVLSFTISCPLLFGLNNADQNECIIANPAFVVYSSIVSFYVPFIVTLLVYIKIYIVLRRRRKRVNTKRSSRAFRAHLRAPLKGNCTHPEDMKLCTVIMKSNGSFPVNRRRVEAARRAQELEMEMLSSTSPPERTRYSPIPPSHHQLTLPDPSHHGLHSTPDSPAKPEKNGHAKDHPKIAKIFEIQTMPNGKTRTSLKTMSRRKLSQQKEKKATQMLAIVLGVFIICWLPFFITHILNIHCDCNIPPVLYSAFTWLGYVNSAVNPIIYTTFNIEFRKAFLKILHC
T1 sequence (P14416 whole entry): as above
complement C5a receptor, sequence (P21730 whole entry): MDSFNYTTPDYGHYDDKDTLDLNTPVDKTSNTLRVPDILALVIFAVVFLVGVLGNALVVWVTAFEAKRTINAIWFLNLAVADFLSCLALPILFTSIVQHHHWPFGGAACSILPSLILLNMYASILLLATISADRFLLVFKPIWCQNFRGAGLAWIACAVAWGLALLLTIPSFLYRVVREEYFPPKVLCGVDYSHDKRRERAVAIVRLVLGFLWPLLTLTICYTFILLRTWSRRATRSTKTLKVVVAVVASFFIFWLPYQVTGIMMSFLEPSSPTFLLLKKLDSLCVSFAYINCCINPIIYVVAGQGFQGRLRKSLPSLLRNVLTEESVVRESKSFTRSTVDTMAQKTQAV

On to `NCCc1ccc(O)c(O)c1` [dopamine], for which the “IP Formation Agonist” value at dopamine D2 receptor [1] is given as 24.0 ± 2.3; on dopamine D2 receptor [2] (setting [8]), 40.1 ± 0.9; on dopamine D2 receptor [2] (setting [9]), 84.5 ± 6.2. Moreover, the “IP Formation % Res.” value was 207a % at dopamine D2 receptor [1] (relative to basal), 324% at dopamine D2 receptor [2] (setting [8]) and 302% at dopamine D2 receptor [2] (setting [9]).

B1: 16z25 chimera (protein)
chain: MARSLTWRCCPWCLTEDEKAAARVDQEINRILLEQKKQDRGELKLLLLGPGESGKSTFIKQMRIIHGAGYSEEERKGFRPLVYQNIFVSMRAMIEAMERLQIPFSRPESKHHASLVMSQDPYKVTTFEKRYAAAMQWLWRDAGIRACYERRREFHLLDSAVYYLSHLERITEEGYVPTAQDVLRSRMPTTGINEYCFSVQKTNLRIVDVGGQKSERKKWIHCFENVIALIYLASLSEYDQCLEENNQENRMKESLALFGTILELPWFKSTSVILFLNKTDILEEKIPTSHLATYFPSFQGPKQDAEAAKRFILDMYTRMYTGCVDGPEGSKKGARSRRLFSHYTCATDTSNIQFVFDAVTDVIIQNNLKYIGLC
Take B1: the IP formation (PLC stimulation), % Res. is 150 % Res in the experiment with melatonin Mel1a receptor; 155 % Res in the experiment with melatonin Mel1b receptor; 197 % Res with adenosine A1 receptor; 224 % Res with µ-opioid receptor; 214 % Res in the experiment with dopamine D1 receptor; 270 % Res with melatonin Mel1c receptor [3]. The IP formation (PLC stimulation), % Res. with complement C5a receptor is 432 % Res; with β2-adrenergic receptor it was 360 % Res; in the experiment with δ-opioid receptor it was 287 % Res; in experiment [4], 352 % Res; with vasopressin V2 receptor it was 291 % Res; in the experiment with κ-opioid receptor it was 188 % Res. Also, the IP formation (PLC stimulation), % Res. was 324 % Res in the experiment with dopamine D2 receptor [5] and 365 % Res with α2-adrenergic receptor.

B2: 16z44 chimera (protein)
chain: MARSLTWRCCPWCLTEDEKAAARVDQEINRILLEQKKQDRGELKLLLLGPGESGKSTFIKQMRIIHGAGYSEEERKGFRPLVYQNIFVSMRAMIEAMERLQIPFSRPESKHHASLVMSQDPYKVTTFEKRYAAAMQWLWRDAGIRACYERRREFHLLDSAVYYLSHLERITEEGYVPTAQDVLRSRMPTTGINEYCFSVQKTNLRIVDVGGQKSERKKWIHCFENVIALIYLASLSEYDQCLEENNQENRMKESLALFGTILELPWFKSTSVILFLNKTDILEEKIPTSHLATYFPSFQGPKQDAEAAKRFILDMYTRMYTGCVDGPEGSNRNKETKEIYSHFTCATDTSNIQFVFDAVTDVIIQNNLKYIGLC
B2 returned an EC50 of 2-iodomelatonin for IP formation in the experiment with melatonin Mel1c receptor [6] of 0.4 nM. Moreover, the IP formation, enhancement of the agonist response by coexpressed 16z44 amounted to 57% in the experiment with bombesin receptor, 43% in the experiment with 5HT1c receptor and 34% with muscarinic m1 receptor. The IP formation (PLC stimulation), % Res. stood at 171 % Res with melatonin Mel1a receptor; 380 % Res in experiment [7]; 177 % Res with melatonin Mel1b receptor; 188 % Res in the experiment with adenosine A1 receptor; 269 % Res with µ-opioid receptor; 287 % Res with dopamine D1 receptor. The IP formation (PLC stimulation), % Res. was determined as 307 % Res with melatonin Mel1c receptor [3]; 457 % Res with complement C5a receptor; 307 % Res with β2-adrenergic receptor; 548 % Res with δ-opioid receptor; 428 % Res in experiment [4]; 321 % Res in the experiment with vasopressin V2 receptor. The IP formation (PLC stimulation), % Res. worked out at 257 % Res in the experiment with κ-opioid receptor, 302 % Res with dopamine D2 receptor [5] and 297 % Res in the experiment with α2-adrenergic receptor.

Values taken from patent publication US6462178B1, “G protein” (Yong Hou Wong, priority 1999, dated 2002).
